Results from US20170233449A1 (Teva, published 2017).

Legend:
[1] = molecular target: human CD38 on cells (human, UniProt P28907 1-300); test: flow cytometry, hybridoma supernatant on RPMI-8226 cells; background MFI average 153
Protocol: Viable RPMI-8226 cells (2×10⁵, as judged by trypan blue exclusion) were incubated with 100 μL of rat hybridoma supernatant for 20 minutes on ice in the dark. Cells were washed twice with FACS buffer (1× PBS plus 1% FCS) before incubation for 20 minutes in 100 μl of FACS buffer containing anti-rat IgG-FITC conjugate (Sigma-Aldrich). After washing cells in FACS buffer, they were resuspended in FACS buffer and analysed for antibody-binding by flow cytometry on a FACS Canto (BD Biosciences, San Diego, Calif.) using EV, side scatter and FL-1 gating. Results were expressed as mean fluorescent intensity (MFI).

[2] = molecular target: T1, human CD38 extracellular domain (ECD), tagged (human, Avitag biotinylated (in the ELISAs)); test: ELISA, biotinylated CD38 ED on streptavidin plates, FAb lysate, anti-V5-HRP
T1 construct: also called human CD38 ED; biotinylated human CD38
Protocol: (§1) Plates were then washed and individual FAb samples (prepared as described above) were added to individual wells on the ELISA plates. FAbs were allowed to bind the captured CD38 ED for an hour at room temperature and then washed three times with PBS-T (1× PBS supplemented with 0.1% Tween®20). FAbs that bound to CD38 ED were detected by incubation for 30 minutes at room temperature with an anti-V5-HRP conjugated antibody (Invitrogen, Carlsbad, Calif.) to detect the V5 tag fused to the C-terminus of the FAb heavy chain. Plates were washed to remove unbound antibody and the assay signal developed by incubation with 50 μL 3,3′,5,5′-Tetramethylbenzidine (Sigma-Adrich, St. Louis, Mo.) and quenching with 50 μL 1 M HCl. Assay signals were read at A450 nm using a microplate reader (BMG Labtech). Results were expressed as the raw A450 nm value, where any signal 2-fold greater than the average assay background was defined as ‘positive’.
(§2) In later assays FAb cross-reactivity with cynomolgus monkey CD38 ED was assessed by coating biotinylated cynomolgus monkey CD38 ED onto streptavidin coated ELISA plates and proceeding as described above.

[3] = molecular target: T2, cynomolgus monkey CD38 extracellular domain (ECD), tagged (cynomolgus monkey, Avitag biotinylated (in the ELISAs)); test: as above
T2 construct: also called cynomolgus monkey CD38 ED
T2 chain: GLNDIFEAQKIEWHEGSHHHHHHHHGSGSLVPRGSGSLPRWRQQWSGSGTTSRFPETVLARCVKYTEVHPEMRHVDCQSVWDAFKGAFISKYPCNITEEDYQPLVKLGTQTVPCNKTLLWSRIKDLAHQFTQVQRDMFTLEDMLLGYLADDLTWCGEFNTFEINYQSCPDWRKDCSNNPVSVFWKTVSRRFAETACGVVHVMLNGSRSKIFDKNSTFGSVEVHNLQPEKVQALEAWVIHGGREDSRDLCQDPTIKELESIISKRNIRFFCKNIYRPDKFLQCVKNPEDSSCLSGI
Protocol: as §1, §2

[4] = molecular target: T1, human CD38 extracellular domain (ECD), …; test: SPR (Biacore T200), antibody captured on Protein A, CD38 ED as analyte, 1:1 Langmuir fit;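 further: CM5 sensor chip in HBS-P buffer at pH 7.4, antibody loaded at 5 µg/mL, responses corrected against a blank reference flow cell before fitting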
Protocol: (§3) Briefly, using a Biacore T200, Protein A was immobilized onto Flow Cell (FC) 1 (FC1) and FC2 (or alternatively FC3 and FC4) of a CM5 research grade sensor chip using amine coupling, giving approximately 2000 RU. FC1 was used as a blank throughout the experiments. The experiments were run in HBS-P buffer (0.01 M HEPES pH 7.4, 0.15 M NaCl, 0.005% v/v Surfactant P20). At a flow rate of 20 μl/min, 20 μl of 5 μg/mL of antibody was passed over FC2. […] Regeneration of the surface was performed using 10mM Glycine, pH 1.0. The FC1 sensorgram data was subtracted from FCS and the curves were fitted using a 1:1 Langmuir equation to generate the kd, kₐ and KD values.

[5] = molecular target: T2, cynomolgus monkey CD38 extracellular …; test: as above
Protocol: as §3

[6] = molecular target: T1, human CD38 extracellular domain (ECD), …; test: ELISA, hybridoma supernatant coated, biotinylated CD38 ED in solution
Protocol: (§4) Following incubation for 1 hour at room temperature, plates were washed as described previously. To one well of each rat antibody duplicate well was added 0.1 μg of biotinylated human CD38 in a final volume of 100 μL 1× PBS. To the second well of each rat antibody duplicate well was added 0.1 μg of biotinylated cynomolgus monkey CD38 ED in a final volume of 100 μL 1× PBS. Plate wells were washed as described previously prior to detection of bound biotinylated CD38 ED using a Streptavidin-HRP conjugate (BD Biosciences, San Diego, Calif.). Plates were washed as above to remove unbound Streptavidin-HRP conjugate and the assay signal developed by incubation with 50 μL 3,3′,5,5′-Tetramethylbenzidine (Sigma-Aldrich) and quenching with 50 μL 1 M HCl. Assay signals were read at A₄₅₀ nm using a microplate reader (BMG Labtech, Cary, N.C.).

[7] = molecular target: T2, cynomolgus monkey CD38 extracellular …; test: as above
Protocol: as §4

B1: R7H11 (rat hybridoma antibody) (antibody, V domains shown)
VH: QVQLKESGPGLLLSSETLSLTCTVSGFSLTSYEVSWVRQLPGRGLEWMGRVWIGGDTDYNSDLKSRLSISRDIAKSQVFLKMSNLKTEDTGTYYCARAYGFNYWSFDFWGPGTMVTVSS
VL: GQFTLTQPKSVSGSLRSTITIPCERSSGDIGDNYVTWYQQHLGRPPLNVIYADDQRPSEVSDRFSGSIDSSSNSASLTITNLQMDDEADYFCQSYDSNTDIIFGGGTKVTVL
notes: tested as rat hybridoma supernatant; lambda light chain
With B1 the MFI [1] was 680 MFI.

B2: R10B10 (rat hybridoma antibody) (antibody, V domains shown)
VH: QVQLKESGPGLVQPSETLSLTCTVSGFSLTSYGVNWVRQPPGKGLEWMGRIWNDGSIDYNSALKSRLSISRDTSKGQVFLKMNSLQTEDTAIYFCARGPYNNYWYFDFWGPGTMVTVLS
VL: GQFTLTQPKSVSGSLRSTITIPCERSSGDIGDNYVSWYQQHLGRPPINVIYADDQRPSEVSDRFSGSIDSSSNSASLTITNLQMDDEADYFCQSYDSNIDIIFGGGTKLTVL
notes: as for B1
B2 was tested, and the MFI [1] was 858 MFI.

B3: X913/15 FAb (Fab, V domains shown)
VH: QVQLVESGGGVVQGGGSLRLSCAASGFTVRSNYMSWVRQAPGKGLEWVSAISGSGDSTYYADSVKGRFTISRDNSKNTLYLQMNSLRAEDTAVYYCAKVAVTTGWYFDLWGRGTLVTVSS
VL: QAVLTQPASLSASPGESARLTCTLPSDINVRYHNIYWYQEKPGSPPRYLLYYYSDSSKGQGSGVPSRFSGSKDVSTNTGILVISGLQSEDEAEYYCMTWSSNGSGVFGGGTQLTVL
notes: human Fab from E. coli lysate, V5 tag at the C-terminus of the Fab heavy chain
B3: binds [2]; binds [3].

B4: X355/02 IgG1 (antibody, V domains shown)
VH: QLQLQESGPGLVKPSETLSLTCTVSGGSISSSSYYWSWIRQHPGKGLEWIGYIYYSGSTNYNPSLKSRVTISVDTLKNQISLRLTSVTAADTAVYYCARVGGAGGWPMDVWGQGTTVTVSS
VL: QAVLTQPASLSASPGESARLTCTLPSDINVRYYNIYWYQQKPGSPPRYLLYYYSDSHKGQGSGVPSRFSGSKDVSTNSGILLISGLQSEDEADYYCMTWSSNGSGVFGGGTQLTVLG
notes: human IgG1 from phage-derived Fab
In the case of B4, the Kd [4] is reported as 7.6 nM, the koff [4] is reported as 0.000892 s⁻¹ and the kon [4] is reported as 118000 M⁻¹ s⁻¹. For the same binder, the Kd [5] was 27.4 nM, the koff [5] was 0.00228 s⁻¹ and the kon [5] was 83400 M⁻¹ s⁻¹.

B5: X355/07 IgG1 (antibody, V domains shown)
VH: QVQLQESGPGLVKPSETLSLTCAVYGGSFSGYYWSWIRQPPGKGLEWIGSIYHSGSTYYNPSLKSRVTISVDTSKNQFSLKLSSVTAADTAVYYCARDLYYYYGMDVWGQGTTVTVSS
VL: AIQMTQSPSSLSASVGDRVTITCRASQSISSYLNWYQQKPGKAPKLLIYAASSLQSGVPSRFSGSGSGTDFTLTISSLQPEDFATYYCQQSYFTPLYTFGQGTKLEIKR
notes: as for B4
Work on B5 yielded a Kd [4] of 11.4 nM, a koff [4] of 0.00132 s⁻¹ and a kon [4] of 115000 M⁻¹ s⁻¹. For the same binder, the Kd [5] was 12.2 nM, the koff [5] was 0.0138 s⁻¹ and the kon [5] was 1.13e+06 M⁻¹ s⁻¹.

B6: X355/04 FAb (Fab, V domains shown)
VH: QVQLVQSGAEVKKPGSSVKVSCKASGGTFSSYAISWVRQAPGQGLEWMGGIIPIFGTANYAQKFQGRVTITADESTSTAYMELSSLRSEDTAVYYCARDSSSWYFTYGYFQHWGQGTLVTVSS
VL: DVVMTQSPLSLPVTPGEPASISCRSSQSLLNSNGYNYLEWYVQKPGQSPQLLIFLGSNRASGVPDRFSGSGSGTDFTLKINRVEAEDVGVYYCMQALQSPLTFGGGTKVEIK
notes: as for B3
B6: binds [2]; binds [3].

B7: R7F11 (rat hybridoma antibody) (antibody, V domains shown)
VH: QIQLVQSGPGLKKPGESVKISCKASGYTFTDYSMHWVKQAPGKGLQWMGWINTYSGKPTYAADFKGRFVFSLEASASTANLQISNLKNEDTATYFCARCYDGTFYYDPMDAWGQGTSVTVSS
VL: NIVLTQSPATLSVTPGESVSLSCRASQSIGTSIHWYQQKSNESPRLLIRYASQSISGIPSRFSGSGSGTDFTLSINRVESEDFSIYYCQQSYSSLVTFGSGTKLEIK
notes: tested as rat hybridoma supernatant; kappa light chain
With B7 the MFI [1] was 11900 MFI, the binding result [6] was “binds” and the binding result [7] was “binds”.

B8: X355/01 FAb (Fab, V domains shown)
VH: QVQLVQSGAEVKKPGSSVKVSCKASGGNFISYSISWVRQAPGKRLEWMGWIIPIFGTTTYVQKFQGRVTITADESTSTAYMELSSLRSEDTAVYYCARVKYGSGSYYPNNWFDPWGQGTLVTVSS
VL: EIVLTQSPATLSASPGERATLSCRASQSISSNLAWYQQKPGQAPRLLIQDSSTRATGIPARFSGSGSGTEFTLTISSLQSEDFAVYYCQQSDNWPLTFGGGTKVDIK
notes: as for B3
B8: binds [2]; binds [3].

B9: R10A2 (rat hybridoma antibody) (antibody, V domains shown)
VH: EVQLQQSGPEVGRPGSSVKISCKASGYTFTDSVMNWVKQSPGQGLEWIGWIDPEYGRTDVAEKFKKKATLTADSSSSTAYIYLSGLTSEDTATYFCARTKYNSGYGFPYWGQGSLVTVSS
VL: DIVMTQSPTSISISVGERVTMNCKASQNVDSDVDWYQQKTGQSPKLLIYKASNRYTGVPDRFTGSGSGTDFTFTISNMQAEDLAVYYCMQSNTHPRTFGGGTKLELK
notes: as for B7
B9 showed an MFI [1] of 4470 MFI.

B10: R10A2 IgG1 (antibody, V domains shown)
VH: EVQLQQSGPEVGRPGSSVKISCKASGYTFTDSVMNWVKQSPGQGLEWIGWIDPEYGRTDVAEKFKKKATLTADSSSSTAYIYLSGLTSEDTATYFCARTKYNSGYGFPYWGQGSLVTVSS
VL: DIVMTQSPTSISISVGERVTMNCKASQNVDSDVDWYQQKTGQSPKLLIYKASNRYTGVPDRFTGSGSGTDFTFTISNMQAEDLAVYYCMQSNTHPRTFGGGTKLELKR
notes: chimeric rat-human IgG1
Binder B10 has a Kd [4] of 0.7 nM, a koff [4] of 0.000479 s⁻¹ and a kon [4] of 660000 M⁻¹ s⁻¹. For the same binder, the Kd [5] was 2.2 nM, the koff [5] was 0.00193 s⁻¹ and the kon [5] was 898000 M⁻¹ s⁻¹.

B11: R5D1 IgG1 (antibody, V domains shown)
VH: EVQLQQSGPEVGRPGSSVKISCKASGYTFTDYIMHWVKQSPGQGLEWIGWIDPEYGRTDYAEKFKKKATLTADTSSSTAYIQLSSLASEDTATYFCARSAHTTGFGFAYWGQGTLVTVSS
VL: DIQMTQSPASLSASLGETVTIECRASEDIYSNLAWYQQKPGNSPQLLIYDANSLADGVPSRFSASGSGTQFSLKINSLRSEDVASYFCQQYNNYPYTFGAGTKLELKR
notes: chimeric rat-human IgG1
In the case of B11, the Kd [4] is reported as 1 nM, the koff [4] is reported as 0.000239 s⁻¹ and the kon [4] is reported as 243000 M⁻¹ s⁻¹. The Kd [5] was 1 nM, the koff [5] was 0.0011 s⁻¹ and the kon [5] was 1.11e+06 M⁻¹ s⁻¹.

B12: R5D1 (rat hybridoma antibody) (antibody, V domains shown)
VH: EVQLQQSGPEVGRPGSSVKISCKASGYTFTDYIMHWVKQSPGQGLEWIGWIDPEYGRTDYAEKFKKKATLTADTSSSTAYIQLSSLASEDTATYFCARSAHTTGFGFAYWGQGTLVTVSS
VL: DIQMTQSPASLSASLGETVTIECRASEDIYSNLAWYQQKPGNSPQLLIYDANSLADGVPSRFSASGSGTQFSLKINSLRSEDVASYFCQQYNNYPYTFGAGTKLELK
notes: as for B7
In the case of B12, the MFI [1] is reported as 12200 MFI.

B13: R5E8 IgG1 (antibody, V domains shown)
VH: EVQLQQSGPEVGRPGSSVKISCKASGYIFTDYIMHWVKQSPGQGLEWIGWIDPEYGSTDYAEKFKKKATLTADTSSSTAYIQLSSLTSEDTATYFCARVAIITTVASGGFAYWGQGTLVTVSS
VL: DIVMTQGALPNPVPSGESASITCQSSESLLHSNGKTYLNWYLQRPGQSPQLLIYWMSTRAAGVSDRFSGSGSGTDFTLTISGVEAEDVGVYYCQQFLEYPPTFGSGTKLEIKR
notes: chimeric rat-human IgG1
Binder B13 has a Kd [4] of 2.9 nM, a koff [4] of 0.00118 s⁻¹ and a kon [4] of 405000 M⁻¹ s⁻¹. It also gave a Kd [5] of 4.2 nM, a koff [5] of 0.0019 s⁻¹ and a kon [5] of 452000 M⁻¹ s⁻¹.

B14: R5E8 (rat hybridoma antibody) (antibody, V domains shown)
VH: EVQLQQSGPEVGRPGSSVKISCKASGYIFTDYIMHWVKQSPGQGLEWIGWIDPEYGSTDYAEKFKKKATLTADTSSSTAYIQLSSLTSEDTATYFCARVAIITTVASGGFAYWGQGTLVTVSS
VL: DIVMTQGALPNPVPSGESASITCQSSESLLHSNGKTYLNWYLQRPGQSPQLLIYWMSTRAAGVSDRFSGSGSGTDFTLTISGVEAEDVGVYYCQQFLEYPPTFGSGTKLEIK
notes: as for B7
B14 showed an MFI [1] of 10600 MFI.

B15: X910/12 FAb (Fab, V domains shown)
VH: EVQLVQSGAEVKKSGASVKVSCKASGYTFTDYYIHWVRQAPGQGLEWMGWINPNNGGVTFAQKFQGRVTMTRDTSISTAYMDLSSLRSDDTAVYFCARDIRMSGWLAPFDYWGQGTLVTVSS
VL: QAVLTQPASLSASPGESARLTCTLPSDINVRYYNIYWYQQKPGSPPRYLLYYYSDSHKDQGSGVPSRFSGSKDTSANTGILLISGLQSEDEADYYCMIWASNGSGVLGGGTQLTVL
notes: as for B3
B15: binds [2]; binds [3].
